{"source": "patent US12539272B2", "about": "“Microemulsion-based vaccine delivery system, preparation method therefor and use thereof” (Sichuan University, priority 2020, dated 2026)", "key": {"DC2.4 cells": {"test_system": "DC2.4 cells", "assay": "Uptake of the microemulsion vaccine system by the DC2.4 cells (flow cytometer)", "format": "cell-based", "details": "1.5 hours at 37° C.", "protocol": "Uptake of the aluminum hydroxide microemulsion vaccine system by the DC2.4 cells: 1×10^6 DC2.4 cells are implanted in each well of a 12-well plate, put into an incubator for 4-6 hours, 5 μg of FITC labeled OVA or the aluminum hydroxide microemulsion entrapping the same amount of the FITC labeled OVA and prepared according to embodiment 6 are added into each well after cell anchorage. Supernatants are discarded after uptake for 1.5 hours at 37° C., cell surfaces are washed with PBS two times slightly, and then directly blown with the PBS, and the cells are centrifugally washed twice at 2000 rpm for 3 min, finally re-suspended by using 400 μl of PBS, and tested by a flow cytometer. […] In the figure, the Free OVA represents free FITC labeled OVA, and NE-OVA represents the aluminum hydroxide microemulsion entrapping the FITC labeled OVA.\nUptake of the ferric hydroxide microemulsion vaccine system by the DC2.4 cells: 1×10^6 DC2.4 cells are implanted in each well of a 12-well plate, and put into an incubator for 4-6 hours, and 2 μg of FITC labeled melanoma antigen peptide GP100 (ITDQVPFSV) or the ferric hydroxide microemulsion entrapping the same amount of the FITC labeled melanoma antigen peptide GP100 (ITDQVPFSV) prepared according to embodiment 9 is added into each well after cell anchorage. […]"}, "mice": {"test_system": "mice", "assay": "Cytotoxic T lymphocyte (CTL) test by CFSE staining method in immunized mice", "format": "in vivo", "details": "25 μl into paws of mice on Day 0, 7, 14; 5 μg OVA, 0.5 μg CpG; CTL on Day 21", "protocol": "Cytotoxic T lymphocyte (CTL) test and immune antibody testing of the aluminum hydroxide microemulsion vaccine system: 25 μl of the aluminum hydroxide microemulsion entrapping OVA and prepared in embodiment 6, the aluminum hydroxide microemulsion entrapping OVA and CpG and prepared in embodiment 7, and free OVA or free OVA and CpG (including 5 μg of OVA and 0.5 μg of CpG) are injected into paws of immunized mice on Day 0, Day 7 and Day 14, and CTL response in the body is tested by a CFSE staining method on Day 21. […] In the figure, OVA represents free OVA, NE-OVA represents the aluminum hydroxide microemulsion entrapping OVA, OVA+CpG represents free OVA and CpG, and NE-OVA-CpG represents the aluminum hydroxide microemulsion entrapping OVA and CpG."}}}
{"molecule": "melanoma antigen peptide GP100 (ITDQVPFSV) [Free-GP100, reference compound]", "values": [{"measurement": "uptake by the DC2.4 cells (in words)", "setting": "DC2.4 cells; 2 μg FITC labeled GP100 per well", "value": "barely taken up"}]}
{"molecule": "chicken ovalbumin (protein, UniProt P01012 2-386, looked up, FITC label in uptake test, free model antigen chicken ovalbumin (OVA); FITC labeled in the uptake test) Ovalbumin: GSIGAASMEFCFDVFKELKVHHANENIFYCPIAIMSALAMVYLGAKDSTRTQINKVVRFDKLPGFGDSIEAQCGTSVNVHSSLRDILNQITKPNDVYSFSLASRLYAEERYPILPEYLQCVKELYRGGLEPINFQTAADQARELINSWVESQTNGIIRNVLQPSSVDSQTAMVLVNAIVFKGLWEKAFKDEDTQAMPFRVTEQESKPVQMMYQIGLFRVASMASEKMKILELPFASGTMSMLVLLPDEVSGLEQLESIINFEKLTEWTSSNVMEERKIKVYLPRMKMEEKYNLTSVLMAMGITDVFSSSANLSGISSAESLKISQAVHAAHAEINEAGREVVGSAEAGVDAASVSEEFRADHPFLFCIKHIATNAVLFFGRCVSP", "values": [{"measurement": "uptake by the DC2.4 cells (in words)", "setting": "DC2.4 cells; 5 μg FITC labeled OVA per well", "value": "barely taken up"}, {"measurement": "antigen-specific cellular immune response (CTL)", "setting": "mice", "value": "cannot induce the antigen-specific cellular immune response"}]}
